From patent US12679878B2, “CRF2 receptor agonists and their use in therapy” (SANOFI, priority 2020, dated 2026)
Starred links: 1 amine or outer side, 2 acyl side, 3 side chain; linkers in the order of their positions; H or OH if unused. Non-standard residues stand in square brackets, D forms with d. Groups on a side chain read outwards from the residue. No end group written: not given here. *: point of attachment. C18 diacid = O=C(O)CCCCCCCCCCCCCCCCC(=O)*; γGlu = O=C(O)[C@H](CCC(=O)[*:2])N[*:1]; AEEA = NCCOCCOCC(=O)O; Aib = CC(C)(N)C(=O)O

Biological target: T1, CRF1R receptor (anti-target) (UniProt P34998 24-415, limits assumed)
T1 sequence (looked up): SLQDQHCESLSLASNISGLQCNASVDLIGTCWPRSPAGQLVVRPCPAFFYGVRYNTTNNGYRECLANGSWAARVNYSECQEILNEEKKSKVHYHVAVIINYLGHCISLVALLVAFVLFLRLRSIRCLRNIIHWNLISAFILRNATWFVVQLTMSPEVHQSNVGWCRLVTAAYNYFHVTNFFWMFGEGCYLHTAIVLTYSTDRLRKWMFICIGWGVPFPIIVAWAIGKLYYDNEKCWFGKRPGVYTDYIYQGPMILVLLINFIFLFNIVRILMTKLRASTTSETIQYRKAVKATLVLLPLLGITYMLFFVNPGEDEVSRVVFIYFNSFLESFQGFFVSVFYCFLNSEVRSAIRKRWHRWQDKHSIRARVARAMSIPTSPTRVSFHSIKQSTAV
Assay: cell-based or functional assay

Row | Binder | EC50 [nM] 0% HSA (cAMP, HTRF) | Emax (%) (100% = Sauvagine at 100 nM)
1 | IVLSLD[dV]PIKLK([AEEA-AEEA-γGlu-C18 diacid])QILLKQERQKK[Aib]REQAETNKRILERV-NH2 (N-terminus assumed; SMILES CC[C@H](C)[C@H](N)C(=O)N[C@H](C(=O)N[C@@H](CC(C)C)C(=O)N[C@@H](CO)C(=O)N[C@@H](CC(C)C)C(=O)N[C@@H](CC(=O)O)C(=O)N[C@@H](C(=O)N1CCC[C@H]1C(=O)N[C@H](C(=O)N[C@@H](CCCCN)C(=O)N[C@@H](CC(C)C)C(=O)N[C@@H](CCCCNC(=O)COCCOCCNC(=O)COCCOCCNC(=O)CC[C@H](NC(=O)CCCCCCCCCCCCCCCCC(=O)O)C(=O)O)C(=O)N[C@@H](CCC(N)=O)C(=O)N[C@H](C(=O)N[C@@H](CC(C)C)C(=O)N[C@@H](CC(C)C)C(=O)N[C@@H](CCCCN)C(=O)N[C@@H](CCC(N)=O)C(=O)N[C@@H](CCC(=O)O)C(=O)N[C@@H](CCCNC(=N)N)C(=O)N[C@@H](CCC(N)=O)C(=O)N[C@@H](CCCCN)C(=O)N[C@@H](CCCCN)C(=O)NC(C)(C)C(=O)N[C@@H](CCCNC(=N)N)C(=O)N[C@@H](CCC(=O)O)C(=O)N[C@@H](CCC(N)=O)C(=O)N[C@@H](C)C(=O)N[C@@H](CCC(=O)O)C(=O)N[C@H](C(=O)N[C@@H](CC(N)=O)C(=O)N[C@@H](CCCCN)C(=O)N[C@@H](CCCNC(=N)N)C(=O)N[C@H](C(=O)N[C@@H](CC(C)C)C(=O)N[C@@H](CCC(=O)O)C(=O)N[C@@H](CCCNC(=N)N)C(=O)N[C@H](C(N)=O)C(C)C)[C@@H](C)CC)[C@@H](C)O)[C@@H](C)CC)[C@@H](C)CC)C(C)C)C(C)C) [peptide of SEQ ID NO: 149] | > 100 nM | 6.6%
2 | IVLSLD[dV]PIGLK([AEEA-AEEA-γGlu-C18 diacid])QILLKQERQKK[Aib]RQQAETNKRILERV-NH2 (N-terminus assumed; SMILES CC[C@H](C)[C@H](N)C(=O)N[C@H](C(=O)N[C@@H](CC(C)C)C(=O)N[C@@H](CO)C(=O)N[C@@H](CC(C)C)C(=O)N[C@@H](CC(=O)O)C(=O)N[C@@H](C(=O)N1CCC[C@H]1C(=O)N[C@H](C(=O)NCC(=O)N[C@@H](CC(C)C)C(=O)N[C@@H](CCCCNC(=O)COCCOCCNC(=O)COCCOCCNC(=O)CC[C@H](NC(=O)CCCCCCCCCCCCCCCCC(=O)O)C(=O)O)C(=O)N[C@@H](CCC(N)=O)C(=O)N[C@H](C(=O)N[C@@H](CC(C)C)C(=O)N[C@@H](CC(C)C)C(=O)N[C@@H](CCCCN)C(=O)N[C@@H](CCC(N)=O)C(=O)N[C@@H](CCC(=O)O)C(=O)N[C@@H](CCCNC(=N)N)C(=O)N[C@@H](CCC(N)=O)C(=O)N[C@@H](CCCCN)C(=O)N[C@@H](CCCCN)C(=O)NC(C)(C)C(=O)N[C@@H](CCCNC(=N)N)C(=O)N[C@@H](CCC(N)=O)C(=O)N[C@@H](CCC(N)=O)C(=O)N[C@@H](C)C(=O)N[C@@H](CCC(=O)O)C(=O)N[C@H](C(=O)N[C@@H](CC(N)=O)C(=O)N[C@@H](CCCCN)C(=O)N[C@@H](CCCNC(=N)N)C(=O)N[C@H](C(=O)N[C@@H](CC(C)C)C(=O)N[C@@H](CCC(=O)O)C(=O)N[C@@H](CCCNC(=N)N)C(=O)N[C@H](C(N)=O)C(C)C)[C@@H](C)CC)[C@@H](C)O)[C@@H](C)CC)[C@@H](C)CC)C(C)C)C(C)C) [peptide of SEQ ID NO: 150] | > 100 nM | 7.2%
3 | IVLSLDVPIGLK([AEEA-AEEA-γGlu-C18 diacid])QILLKQERQKK[Aib]REQAETNAQILAQV-NH2 (N-terminus assumed; SMILES CC[C@H](C)[C@H](N)C(=O)N[C@H](C(=O)N[C@@H](CC(C)C)C(=O)N[C@@H](CO)C(=O)N[C@@H](CC(C)C)C(=O)N[C@@H](CC(=O)O)C(=O)N[C@H](C(=O)N1CCC[C@H]1C(=O)N[C@H](C(=O)NCC(=O)N[C@@H](CC(C)C)C(=O)N[C@@H](CCCCNC(=O)COCCOCCNC(=O)COCCOCCNC(=O)CC[C@H](NC(=O)CCCCCCCCCCCCCCCCC(=O)O)C(=O)O)C(=O)N[C@@H](CCC(N)=O)C(=O)N[C@H](C(=O)N[C@@H](CC(C)C)C(=O)N[C@@H](CC(C)C)C(=O)N[C@@H](CCCCN)C(=O)N[C@@H](CCC(N)=O)C(=O)N[C@@H](CCC(=O)O)C(=O)N[C@@H](CCCNC(=N)N)C(=O)N[C@@H](CCC(N)=O)C(=O)N[C@@H](CCCCN)C(=O)N[C@@H](CCCCN)C(=O)NC(C)(C)C(=O)N[C@@H](CCCNC(=N)N)C(=O)N[C@@H](CCC(=O)O)C(=O)N[C@@H](CCC(N)=O)C(=O)N[C@@H](C)C(=O)N[C@@H](CCC(=O)O)C(=O)N[C@H](C(=O)N[C@@H](CC(N)=O)C(=O)N[C@@H](C)C(=O)N[C@@H](CCC(N)=O)C(=O)N[C@H](C(=O)N[C@@H](CC(C)C)C(=O)N[C@@H](C)C(=O)N[C@@H](CCC(N)=O)C(=O)N[C@H](C(N)=O)C(C)C)[C@@H](C)CC)[C@@H](C)O)[C@@H](C)CC)[C@@H](C)CC)C(C)C)C(C)C) [peptide of SEQ ID NO: 156] | > 100 nM | 4%
4 | IVLSLDVPIKLK([AEEA-AEEA-γGlu-C18 diacid])QILLKQERQKK[Aib]REQAETNKRILERV-NH2 (N-terminus assumed; SMILES CC[C@H](C)[C@H](N)C(=O)N[C@H](C(=O)N[C@@H](CC(C)C)C(=O)N[C@@H](CO)C(=O)N[C@@H](CC(C)C)C(=O)N[C@@H](CC(=O)O)C(=O)N[C@H](C(=O)N1CCC[C@H]1C(=O)N[C@H](C(=O)N[C@@H](CCCCN)C(=O)N[C@@H](CC(C)C)C(=O)N[C@@H](CCCCNC(=O)COCCOCCNC(=O)COCCOCCNC(=O)CC[C@H](NC(=O)CCCCCCCCCCCCCCCCC(=O)O)C(=O)O)C(=O)N[C@@H](CCC(N)=O)C(=O)N[C@H](C(=O)N[C@@H](CC(C)C)C(=O)N[C@@H](CC(C)C)C(=O)N[C@@H](CCCCN)C(=O)N[C@@H](CCC(N)=O)C(=O)N[C@@H](CCC(=O)O)C(=O)N[C@@H](CCCNC(=N)N)C(=O)N[C@@H](CCC(N)=O)C(=O)N[C@@H](CCCCN)C(=O)N[C@@H](CCCCN)C(=O)NC(C)(C)C(=O)N[C@@H](CCCNC(=N)N)C(=O)N[C@@H](CCC(=O)O)C(=O)N[C@@H](CCC(N)=O)C(=O)N[C@@H](C)C(=O)N[C@@H](CCC(=O)O)C(=O)N[C@H](C(=O)N[C@@H](CC(N)=O)C(=O)N[C@@H](CCCCN)C(=O)N[C@@H](CCCNC(=N)N)C(=O)N[C@H](C(=O)N[C@@H](CC(C)C)C(=O)N[C@@H](CCC(=O)O)C(=O)N[C@@H](CCCNC(=N)N)C(=O)N[C@H](C(N)=O)C(C)C)[C@@H](C)CC)[C@@H](C)O)[C@@H](C)CC)[C@@H](C)CC)C(C)C)C(C)C) [peptide of SEQ ID NO: 152] | > 100 nM | 4.9%
